The record followed here is article PMC3355487 (mAbs, 2012).

The term Kd denotes a measure of binding affinity in units of concentration. Read a high Kd as a looser complex. One may read the koff as a measure of how fast the partners let go of each other. Lower therefore signals slow dissociation. In general, kon refers to the second-order rate constant of association. Lower therefore signals slower complex formation.

Experiment [1] addresses T1, hROR1-ECD (Homo sapiens, UniProt Q01973). Description: SPR. On the technique in general: SPR reads the build-up and loss of mass on a sensor chip optically.
For experiment [2], the target named is T2, Fc-hROR1 (Homo sapiens, UniProt Q01973). Description: SPR.
T2 sequence (Q01973 30-406): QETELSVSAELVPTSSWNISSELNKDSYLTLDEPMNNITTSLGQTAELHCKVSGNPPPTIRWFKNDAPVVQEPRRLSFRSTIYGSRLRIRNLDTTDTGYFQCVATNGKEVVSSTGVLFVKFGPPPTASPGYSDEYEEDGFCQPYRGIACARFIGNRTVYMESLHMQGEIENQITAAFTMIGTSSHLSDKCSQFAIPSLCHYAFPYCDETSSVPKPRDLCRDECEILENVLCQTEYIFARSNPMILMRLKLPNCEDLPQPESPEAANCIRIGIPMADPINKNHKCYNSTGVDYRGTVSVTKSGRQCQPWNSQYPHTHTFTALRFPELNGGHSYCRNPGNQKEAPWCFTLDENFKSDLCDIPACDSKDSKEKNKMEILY
The target of another experiment is Fc-hROR1Fz+Kr (Homo sapiens, UniProt Q01973). As to the kind of experiment: ELISA. On the technique in general: In an ELISA, binding on a coated surface is turned into a signal by an enzyme label.
The next experiment concerns the target Fc-mROR1 (Mus musculus, UniProt Q9Z139). As to the kind of experiment: ELISA.
In another experiment the target is Fc-hROR1Kr (Homo sapiens, UniProt Q01973). Description: ELISA.
Another experiment deals with Fc-hROR1Fz (Homo sapiens, UniProt Q01973). Description: ELISA.
Fc-hROR1Fz, sequence (Q01973 165-299): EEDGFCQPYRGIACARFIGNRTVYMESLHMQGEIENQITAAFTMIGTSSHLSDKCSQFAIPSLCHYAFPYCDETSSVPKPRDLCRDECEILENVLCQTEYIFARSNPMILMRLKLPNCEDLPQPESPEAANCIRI
Experiment [3] concerns the target T1, hROR1-ECD. Description: SPR. This is another data set of the same source.
Experiment [4] addresses T2, Fc-hROR1. Description: SPR. This is another data set of the same source.

Read-outs that look alike come from different tables or passages of the source.

T1 sequence (Q01973 30-406): as the sequence (Q01973 30-406) above
Fc-mROR1, sequence (Q9Z139 30-406): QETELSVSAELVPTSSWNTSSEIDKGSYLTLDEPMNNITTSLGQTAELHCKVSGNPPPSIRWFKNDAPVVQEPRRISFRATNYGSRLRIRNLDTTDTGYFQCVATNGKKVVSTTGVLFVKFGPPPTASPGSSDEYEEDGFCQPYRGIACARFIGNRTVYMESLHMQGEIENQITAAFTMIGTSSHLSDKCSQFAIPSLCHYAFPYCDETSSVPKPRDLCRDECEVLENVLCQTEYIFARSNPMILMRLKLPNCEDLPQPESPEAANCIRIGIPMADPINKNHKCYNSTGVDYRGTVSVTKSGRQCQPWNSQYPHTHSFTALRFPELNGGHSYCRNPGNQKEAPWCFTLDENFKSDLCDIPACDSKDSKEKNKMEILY

B1: mouse anti-human ROR1 monoclonal antibody 2A2-IgG (antibody, V domains shown)
VH: QVQLQQSGAELVRPGASVTLSCKASGYTFSDYEMHWVIQTPVHGLEWIGAIDPETGGTAYNQKFKGKAILTADKSSSTAYMELRSLTSEDSAVYYCTGYYDYDSFTYWGQGTLVTVSA
VL: DIVMTQSQKIMSTTVGDRVSITCKASQNVDAAVAWYQQKPGQSPKLLIYSASNRYTGVPDRFTGSGSGTDFTLTISNMQSEDLADYFCQQYDIYPYTFGGGTKLEIK
B1: the Kd was found to be 32.6 nM with hROR1-ECD [1], 0.79 nM in the experiment with Fc-hROR1 [2], 0.12 nM in the experiment with hROR1-ECD [3] and 0.42 nM in the experiment with Fc-hROR1 [4]. Moreover, the koff with hROR1-ECD [1] was found to be 0.00777 s⁻¹; with Fc-hROR1 [2], 0.00018 s⁻¹; with hROR1-ECD [3], 0.00018 s⁻¹; in the experiment with Fc-hROR1 [4], 0.00034 s⁻¹. Also, the kon in the experiment with hROR1-ECD [1] was determined as 240000 M⁻¹ s⁻¹; in the experiment with Fc-hROR1 [2], 230000 M⁻¹ s⁻¹; with hROR1-ECD [3], 1.52e+06 M⁻¹ s⁻¹; with Fc-hROR1 [4], 810000 M⁻¹ s⁻¹. Further, the binding result was “no binding” in the experiment with Fc-hROR1Fz+Kr, “binds” in the experiment with Fc-mROR1, “no binding” with Fc-hROR1Kr and “no binding” with Fc-hROR1Fz.
